Experimental findings from patent US20120283194, “Inhibitors of Atypical Protein Kinase C and Their Use in Treating Hedgehog Pathway-Dependent Cancers” (published 2012) are described below.

In one data set the target is T1, aPKC (HIS:aPKC) (UniProt P41743 P41743:1-596).
T1 sequence: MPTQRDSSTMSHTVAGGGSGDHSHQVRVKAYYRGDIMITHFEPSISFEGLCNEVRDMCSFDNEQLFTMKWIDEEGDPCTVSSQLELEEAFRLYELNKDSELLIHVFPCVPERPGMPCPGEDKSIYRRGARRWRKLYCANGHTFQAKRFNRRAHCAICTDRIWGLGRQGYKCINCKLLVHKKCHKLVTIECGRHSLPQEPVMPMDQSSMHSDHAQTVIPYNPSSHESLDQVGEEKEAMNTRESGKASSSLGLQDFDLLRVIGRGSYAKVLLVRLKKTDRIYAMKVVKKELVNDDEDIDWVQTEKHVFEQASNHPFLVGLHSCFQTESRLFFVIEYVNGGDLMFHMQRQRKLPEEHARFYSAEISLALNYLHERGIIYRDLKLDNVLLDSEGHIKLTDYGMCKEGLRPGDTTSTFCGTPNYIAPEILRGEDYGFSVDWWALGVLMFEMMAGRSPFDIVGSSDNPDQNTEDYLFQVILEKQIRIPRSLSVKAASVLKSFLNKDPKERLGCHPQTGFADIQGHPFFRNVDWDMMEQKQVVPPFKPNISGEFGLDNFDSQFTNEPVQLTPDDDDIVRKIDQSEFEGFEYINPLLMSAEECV
Kind of data set: EMSA; aPKC alone did not bind. Conditions: tags: HIS, Abcam. As to the method: (§1) Electrophoretic mobility shift assay performed by incubation of 50 fmol double-stranded radiolabeled Gli1 oligos (5′ […] 3′ (SEQ IF NO:5)) in binding buffer ([…] pH 7.5, mM KCl, 2.5 mM MgCl2, 1 mM DTT, 10% glycerol, 25 uM poly(dO-dC), 5 uM ZnSO₄) with IVT Gli1:V5/HIS lysate for 10 min at room temperature. 2 pmol unlabeled Gli1 oligos or Gli1 mutant oligos (5′ […] 3′ (SEQ ID NO:6)) used as competition. Endogenous aPKC inhibited in reticulocyte lysate with PSI during translation reaction and rescue performed by adding recombinant HIS:aPKC for 15 min before addition of radiolabeled Gli1 oligos. Samples were resolved on 6% acrylamide gel and exposed to a phosphor screen (Molecular Dynamics) and imaged with GE Typhoon 9410.
(§2) We asked whether phosphorylated Gli1 affects the mobility of radiolabeled Gli1 target DNA in an electrophoretic mobility assay.

The next data set deals with Gli1 (Homo sapiens, UniProt P08151 P08151:1-1106). Kind of data set: EMSA; Zn, Mg, poly(dI-dC)-type competitor, room temperature; binding reduced by PSI during translation and rescued by recombinant aPKC; over-phosphorylation disrupts. Conditions: tags: V5/HIS, rabbit reticulocyte lysate (Promega). How it is done: as §1, §2
Gli1, sequence (P08151 whole entry, one chain of several): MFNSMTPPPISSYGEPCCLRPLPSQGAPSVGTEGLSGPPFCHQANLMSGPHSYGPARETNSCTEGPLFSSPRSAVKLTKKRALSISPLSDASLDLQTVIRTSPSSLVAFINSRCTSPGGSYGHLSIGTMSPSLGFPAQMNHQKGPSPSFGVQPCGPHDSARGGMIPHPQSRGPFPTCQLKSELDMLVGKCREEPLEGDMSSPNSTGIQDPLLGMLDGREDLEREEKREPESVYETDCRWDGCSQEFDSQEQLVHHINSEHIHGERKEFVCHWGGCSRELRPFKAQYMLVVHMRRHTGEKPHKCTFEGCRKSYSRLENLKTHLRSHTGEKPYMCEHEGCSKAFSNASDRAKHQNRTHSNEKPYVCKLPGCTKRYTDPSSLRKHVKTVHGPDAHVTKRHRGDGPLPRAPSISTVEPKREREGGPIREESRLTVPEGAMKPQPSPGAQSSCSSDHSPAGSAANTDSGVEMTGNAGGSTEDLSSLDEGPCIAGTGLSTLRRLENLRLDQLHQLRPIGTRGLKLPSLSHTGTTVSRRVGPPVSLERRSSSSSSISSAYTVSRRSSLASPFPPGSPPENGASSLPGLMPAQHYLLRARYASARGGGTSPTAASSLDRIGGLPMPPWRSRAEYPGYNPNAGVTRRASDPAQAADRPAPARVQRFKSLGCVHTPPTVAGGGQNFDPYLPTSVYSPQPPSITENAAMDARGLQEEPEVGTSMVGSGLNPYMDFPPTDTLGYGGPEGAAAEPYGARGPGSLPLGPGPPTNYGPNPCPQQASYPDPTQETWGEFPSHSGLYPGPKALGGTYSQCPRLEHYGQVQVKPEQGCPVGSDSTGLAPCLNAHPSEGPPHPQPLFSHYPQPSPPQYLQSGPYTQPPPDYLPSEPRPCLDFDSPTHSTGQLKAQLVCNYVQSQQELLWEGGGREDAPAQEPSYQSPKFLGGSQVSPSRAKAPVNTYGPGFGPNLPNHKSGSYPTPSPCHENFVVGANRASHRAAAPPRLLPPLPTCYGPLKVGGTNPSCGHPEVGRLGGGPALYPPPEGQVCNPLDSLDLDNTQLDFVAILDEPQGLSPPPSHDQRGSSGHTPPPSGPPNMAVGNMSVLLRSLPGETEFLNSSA

B1: Gli1 target oligo (dsDNA)
DNA 1: AGCCCGGACCACCCACGAGAA
DNA 2: TTCTCGTGGGTGGTCCGGGCT
As for B1, the results for the binding result in the data set with aPKC (HIS:aPKC) and with Gli1 were “no binding” and “binds”, respectively.
